Measured values from publication PMC5775257, “Binding of NUFIP2 to Roquin promotes recognition and regulation of ICOS mRNA” (Nature Communications, 2018).

T1: mouse Roquin-1 (aa 2–441) (mouse, UniProt Q4VGL6 2-441)
T1 construct: mouse Roquin-1 aa 2-441; also called Roquin (aa 2–441)
T1 sequence (looked up): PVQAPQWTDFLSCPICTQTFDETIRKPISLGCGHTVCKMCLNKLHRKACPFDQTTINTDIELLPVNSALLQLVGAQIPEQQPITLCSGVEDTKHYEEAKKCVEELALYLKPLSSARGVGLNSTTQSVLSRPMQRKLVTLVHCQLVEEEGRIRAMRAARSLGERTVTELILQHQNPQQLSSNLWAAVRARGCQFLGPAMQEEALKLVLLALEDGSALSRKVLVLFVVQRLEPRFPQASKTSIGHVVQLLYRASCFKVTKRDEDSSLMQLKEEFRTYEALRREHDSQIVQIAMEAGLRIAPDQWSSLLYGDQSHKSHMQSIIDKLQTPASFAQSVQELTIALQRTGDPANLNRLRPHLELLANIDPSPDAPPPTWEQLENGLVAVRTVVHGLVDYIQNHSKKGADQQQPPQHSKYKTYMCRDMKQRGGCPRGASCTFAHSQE

B1: human NUFIP2 (aa 255–411) (domain or fragment, UniProt Q7Z417 255-411, looked up)
chain: KQGLETFKPDYSEQKGNRVDGSKPIWKYETGPGGTSRGKPAVGDMLRKSSDSKPGVSSKKFDDRPKGKHASAVASKEDSWTLFKPPPVFPVDNSSAKIVPKISYASKVKENLNKTIQNSSVSPTSSSSSSSSTGETQTQSSSRLSQVPMSALKSVTS
notes: His6-SUMO cleaved off by PreScission protease; source: E. coli BL21(DE3)pRIL, purified (HisTrap, ion exchange, Superdex 75); not shown: His6-SUMO, N-terminal, cleaved
B2: mouse Fmrp (aa 1–132) (domain or fragment)
chain: not shown
notes: His6-GST cut off by PreScission protease; source: E. coli BL21Star(DE3), purified (HisTrap, GSTTrap, Superdex 75); not shown: His6-GST, N-terminal, cleaved

Assays:
[1] = biological target: T1, mouse Roquin-1 (aa 2–441); test: SPR; BIACORE 3000; Roquin (aa 2–441) immobilised on CM5 chip by amine coupling; NUFIP2 (aa 255–411) injected at 0.063-4 μM, 30 μL/min, 20 °C; 150 mM NaCl, 0.05% Tween20, 10 mM HEPES; steady-state analysis; settings: both partners purified
[2] = biological target: B1; test: SPR; BIACORE 3000; Roquin (aa 2–441) immobilised; 4 μM NUFIP2 (aa 255–411) injected together with 0.016, 0.063, 0.25 or 1 μM FMRP (aa 1–132); 250 mM NaCl, 0.05% Tween20, 10 mM HEPES; settings: both partners purified

Row | Binder | Kd [1] [nM] | binding result [2]
1 | B1 | 182 | 
2 | B2 |  | binds
